According to US11034759B2, “Humanized M-CSF specific monoclonal antibodies, kits, and uses thereof” (NOVARTIS VACCINES AND DIAGNOSTICS, INC., priority 2004, dated 2021):

T1: MCSF (Homo sapiens, UniProt P09603)
T1 sequence (P09603 33-255 limits assumed): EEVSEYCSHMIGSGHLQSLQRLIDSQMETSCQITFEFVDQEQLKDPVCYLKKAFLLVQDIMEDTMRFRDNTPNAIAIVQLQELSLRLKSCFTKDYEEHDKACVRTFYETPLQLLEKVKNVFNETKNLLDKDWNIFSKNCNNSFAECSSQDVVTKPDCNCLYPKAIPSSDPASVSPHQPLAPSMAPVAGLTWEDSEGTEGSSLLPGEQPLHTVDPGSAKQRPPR


Experiments:
MCSF [1] = target: T1, MCSF; assay: M-NFS-60 proliferation assay, neutralizing activity (Example 1); assay type: cell-based; conditions: 10 ng/ml M-CSF, 72 hours
Description: Proliferation of M-NFS-60 requires active M-CSF in a dose-dependent fashion. In the assay, M-NFS-60 cells were washed and plated in RPMI 1640 medium with 10% FBS and 3000 U/ml of M-CSF and 1% Pen/Strep. Recombinant human M-CSF (at 10 ng/ml final concentration), human or murine-specific, was incubated with various concentrations of antibodies for 1 hour at 37° C. in 5% CO2 in an incubator. Following the incubation, the mixture was added to the M-NFS-60 culture in 96 well microtiter plates. Cells were incubated at 37° C. under 5% CO2 for 72 hours before cell numbers were quantified by CellTiter Glo assay (Promega). The aforementioned assay was repeated for antibodies MC3 and MC1.

MCSF [2] = target: T1, MCSF; assay: Biacore analysis of Human Engineered RX1 antibodies, M-CSF immobilized (Example 13); assay type: binding
Description: To determine the relative differences in the binding affinity of intact antibodies by Biacore analysis, M-CSF was immobilized onto CMS biosensor chip via amine coupling. 0.05 μg/ml M-CSF in 10 mM Na-Acetate pH 4.0 was injected at 1 μl/min for 5 minutes to achieve RL=6-12 RU. Test antibody or Fab fragments were flowed over the modified biosensor surface at varying concentrations ranging from 100 nM to 1.5 nM in 2-fold dilutions. Test antibodies were diluted in 0.01 M HEPES pH 7.4, 0.15 M NaCL, 3 mM EDTA, 0.005% Surfactant P20 (HBS-EP) and all experiments were done at 25° C. Each concentration point and buffer blanks were run in triplicate, and data was collected over 3 minutes of association and 8 minutes of dissociation. Kinetic and affinity constants were determined using Biaevaluation software with a 1:1 interaction model/global fit.

MCSF [3] = target: T1, MCSF; assay: Size of antigen-antibody complex by size exclusion chromatography or light scattering; conditions: M-CSF and antibody at equal molar ratios

Molecule	Neutralization of M-CSF activity (M-NFS-60 proliferation) (MCSF [1])	ka (MCSF [2]; Table 11, 25° C.) [M⁻¹ s⁻¹]	kd (MCSF [2]; Table 11, 25° C.) [s⁻¹]	Size of antigen-antibody complex (MCSF [3])	Type of antigen-antibody complex formed with MCSF (MCSF [3])	kd (sec-1) (MCSF [2]; Table 10, 25° C.)	kd (sec-1) (MCSF [2]; Table 11, 25° C.)
MC1: MCSF-specific murine antibody MC1 (SEQ ID NOs: 12 and 13), hybridoma ATCC PTA-6263 (antibody, listed as Mus musculus) heavy: EVKLVESGGGLVQPGGSLKLSCATSGFTFSDYYMYWVRQTPEKRLEWVAYISNGGGSTYYPDTVKGRFTISRDNAKNTLYLQMSRLKSEDTAMYYCARQGSYGYPFAYWGQGTLVTVSAAKTTAPSVYPLAPVCGDTTGSSVTLGCLVKGYFPEPVTLTWNSGSLSSGVHTFPAVLQSDLYTLSSSVTVTSSTWPSQSITCNVAHPASSTKVDKKIEPRGPTIKPCPPCKCPAPNLLGGPSVFIFPPKIKDVLMISLSPIVTCVVVDVSEDDPDVQISWFVNNVEVHTAQTQTHREDYNSTLRVVSALPIQHQDWMSGKEFKCKVNNKDLPAPIERTISKPKGSVRAPQVYVLPPPEEEMTKKQVTLTCMVTDFMPEDIYVEWTNNGKTELNYKNTEPVLDSDGSYFMYSKLRVEKKNWVERNSYSCSVVHEGLHNHHTTKSFSRTPGK light: AIQMTQTTSSLSASLGDRVTISCSASQGISNYLNWYQQKPDGTVKLLIYYTSSLHSGVPSRFSGSGSGTDYSLTISNLEPEDIATYYCQQYSKLPWTFGGGTKLEIKRADAAPTVSIFPPSSEQLTSGGASVVCFLNNFYPKDINVKWKIDGSERQNGVLNSWTDQDSKDSTYSMSSTLTLTKDEYERHNSYTCEATHKTSTSPIVKSFNRNEC	effective inhibitors of M-CSF activity						
heRX1-4.G2: Human Engineered RX1: light chain Low + Mod Risk (Kabat), heavy chain Low + Mod Risk (Kabat), Gamma 2 (antibody, left off: a dimerising Fc or GST) heavy: QVQLQESGPGLVKPSQTLSLTCTVSDYSITSDYAWNWIRQFPGKGLEWMGYISYSGSTSYNPSLKSRITISRDTSKNQFSLQLNSVTAADTAVYYCASFDYAHAMDYWGQGTTVTVSS light: EIVLTQSPGTLSVSPGERVTFSCRASQSIGTSIHWYQQKTGQAPRLLIKYASERATGIPDRFSGSGSGTDFTLTISRVESEDFADYYCQQINSWPTTFGQGTKLEIKRT		238000	0.00108				
heRX1-1.G2: Human Engineered RX1: light chain Low Risk (Kabat), heavy chain Low Risk (Kabat), Gamma 2 (antibody, left off: a dimerising Fc or GST) heavy: DVQLQESGPGLVKPSQTLSLTCTVTDYSITSDYAWNWIRQFPGKKLEWMGYISYSGSTSYNPSLKSRITISRDTSKNQFSLQLNSVTAADTATYYCASFDYAHAMDYWGQGTTVTVSS light: EIVLTQSPGTLSVSPGERVTFSCRASQSIGTSIHWYQQKTGQSPRLLIKYASERISGIPDRFSGSGSGTDFTLTISRVESEDFADYYCQQINSWPTTFGQGTKLEIKRT				greater than 2×10^6 Da	large lattice aggregates	(1.37 ± 0.24) × 10^−3 sec-1	(1.37 ± 0.24) × 10^−3 sec-1
heRX1-5.G2: Human Engineered RX1: light chain Low Risk (Kabat) − R54 to S, heavy chain Low Risk (Kabat), Gamma 2 (antibody, left off: a dimerising Fc or GST) heavy: DVQLQESGPGLVKPSQTLSLTCTVTDYSITSDYAWNWIRQFPGKKLEWMGYISYSGSTSYNPSLKSRITISRDTSKNQFSLQLNSVTAADTATYYCASFDYAHAMDYWGQGTTVTVSS light: EIVLTQSPGTLSVSPGERVTFSCRASQSIGTSIHWYQQKTGQSPRLLIKYASESISGIPDRFSGSGSGTDFTLTISRVESEDFADYYCQQINSWPTTFGQGTKLEIKRT		175000	0.00129				
heRX1-2.G2: Human Engineered RX1: light chain Low Risk (Kabat), heavy chain Low + Mod Risk (Kabat), Gamma 2 (antibody, left off: a dimerising Fc or GST) heavy: QVQLQESGPGLVKPSQTLSLTCTVSDYSITSDYAWNWIRQFPGKGLEWMGYISYSGSTSYNPSLKSRITISRDTSKNQFSLQLNSVTAADTAVYYCASFDYAHAMDYWGQGTTVTVSS light: EIVLTQSPGTLSVSPGERVTFSCRASQSIGTSIHWYQQKTGQSPRLLIKYASERISGIPDRFSGSGSGTDFTLTISRVESEDFADYYCQQINSWPTTFGQGTKLEIKRT		218000	0.00165				
heRX1-3.G2: Human Engineered RX1: light chain Low + Mod Risk (Kabat), heavy chain Low Risk (Kabat), Gamma 2 (antibody, left off: a dimerising Fc or GST) heavy: DVQLQESGPGLVKPSQTLSLTCTVTDYSITSDYAWNWIRQFPGKKLEWMGYISYSGSTSYNPSLKSRITISRDTSKNQFSLQLNSVTAADTATYYCASFDYAHAMDYWGQGTTVTVSS light: EIVLTQSPGTLSVSPGERVTFSCRASQSIGTSIHWYQQKTGQAPRLLIKYASERATGIPDRFSGSGSGTDFTLTISRVESEDFADYYCQQINSWPTTFGQGTKLEIKRT		201000	0.00118				

The remaining lines, values ahead:

Neutralization of M-CSF activity (M-NFS-60 proliferation) (MCSF [1])	ka (MCSF [2]; Table 11, 25° C.) [M⁻¹ s⁻¹]	kd (MCSF [2]; Table 11, 25° C.) [s⁻¹]	Size of antigen-antibody complex (MCSF [3])	Type of antigen-antibody complex formed with MCSF (MCSF [3])	kd (sec-1) (MCSF [2]; Table 10, 25° C.)	kd (sec-1) (MCSF [2]; Table 11, 25° C.)	Molecule
	200000	0.00144	about 400 kDa	2:1 or 2:2 complexes			heRX1-9.G2: Human Engineered RX1: light chain Low + Mod Risk (Germline), heavy chain Low Risk (Kabat), Gamma 2 (antibody, left off: a dimerising Fc or GST) heavy: DVQLQESGPGLVKPSQTLSLTCTVTDYSITSDYAWNWIRQFPGKKLEWMGYISYSGSTSYNPSLKSRITISRDTSKNQFSLQLNSVTAADTATYYCASFDYAHAMDYWGQGTTVTVSS light: DIVLTQSPAFLSVTPGEKVTFTCQASQSIGTSIHWYQQKTDQAPKLLIKYASESISGIPSRFSGSGSGTDFTLTISSVEAEDAADYYCQQINSWPTTFGGGTKLEIKRT
	157000	0.00149					heRX1-7.G2: Human Engineered RX1: light chain Low + Mod Risk (Kabat) − RAT54, 55, 56 to SIS, heavy chain Low Risk (Kabat), Gamma 2 (antibody, V domains shown) VH: DVQLQESGPGLVKPSQTLSLTCTVTDYSITSDYAWNWIRQFPGKKLEWMGYISYSGSTSYNPSLKSRITISRDTSKNQFSLQLNSVTAADTATYYCASFDYAHAMDYWGQGTTVTVSS VL: EIVLTQSPGTLSVSPGERVTFSCRASQSIGTSIHWYQQKTGQAPRLLIKYASESISGIPDRFSGSGSGTDFTLTISRVESEDFADYYCQQINSWPTTFGQGTKLEIK
	152000	0.00148					heRX1-8.G2: Human Engineered RX1: light chain Low + Mod Risk (Kabat) − RAT 54, 55, 56 to SIS, heavy chain Low + Mod Risk (Kabat), Gamma 2 (antibody, V domains shown) VH: QVQLQESGPGLVKPSQTLSLTCTVSDYSITSDYAWNWIRQFPGKGLEWMGYISYSGSTSYNPSLKSRITISRDTSKNQFSLQLNSVTAADTAVYYCASFDYAHAMDYWGQGTTVTVSS VL: EIVLTQSPGTLSVSPGERVTFSCRASQSIGTSIHWYQQKTGQAPRLLIKYASESISGIPDRFSGSGSGTDFTLTISRVESEDFADYYCQQINSWPTTFGQGTKLEIK
			about 400 kDa	2:1 or 2:2 complexes	(1.1 ± 0.11) × 10^−3 sec-1	(1.1 ± 0.11) × 10^−3 sec-1	heRX1-10.G2: Human Engineered RX1: light chain Low + Mod Risk (Germline), heavy chain Low + Mod Risk (Kabat), Gamma 2 (antibody, left off: a dimerising Fc or GST) heavy: QVQLQESGPGLVKPSQTLSLTCTVSDYSITSDYAWNWIRQFPGKGLEWMGYISYSGSTSYNPSLKSRITISRDTSKNQFSLQLNSVTAADTAVYYCASFDYAHAMDYWGQGTTVTVSS light: DIVLTQSPAFLSVTPGEKVTFTCQASQSIGTSIHWYQQKTDQAPKLLIKYASESISGIPSRFSGSGSGTDFTLTISSVEAEDAADYYCQQINSWPTTFGGGTKLEIKRT
